According to patent US10351623B2, “Antagonists of IL-17 isoforms and their uses” (Orega Biotech, priority 2012, dated 2019):

B1: IL-17D: recombinant human IL-17D, interleukin 17 isoform, receptor unknown (protein, UniProt Q8TAD2 16-202, looked up)
Interleukin-17D: AGAPRAGRRPARPRGCADRPEELLEQLYGRLAAGVLSAFHHTLQLGPREQARNASCPAGGRPADRRFRPPTNLRSVSPWAYRISYDPARYPRYLPEAYCLCRGCLTGLFGEEDVRFRSAPVYMPTVVLRRTPACAGGRSVYTEAYVTIPVGCTCVPEPEKDADSINSSIDKQGAKLLLGPNDAPAGP
B2: IL-17E: recombinant human IL-17E (=IL-25), interleukin 17 isoform (protein, UniProt Q9H293 33-177, looked up)
Interleukin-25: YSHWPSCCPSKGQDTSEELLRWSTVPVPPLEPARPNRHPESCRASEDGPLNSRAISPWRYELDRDLNRLPQDLYHARCLCPHCVSLQTGSHMDPRGNSELLYHNQTVFYRRPCHGEKGTHKGYCLERRLYRVSLACVCVRPRVMG
B3: IL-17B: recombinant human IL-17B, interleukin 17 isoform that binds IL-17RB (protein)
chain: QPRSPKSKRKGQGRPGPLAPGPHQVPLDLVSRMKPYARMEEYERNIEEMVAQLRNSSELAQRKCEVNLQLWMSNKRSLSPWGYSINHDPSRIPVDLPEARCLCLGCVNPFTMQEDRSMVSVPVFSQVPVRRRLCPPPPRTGPCRQRAVMETIAVGCTCIF
B4: IL-17F: recombinant human IL-17F, interleukin 17 isoform (protein, UniProt Q96PD4 31-163, looked up)
Interleukin-17F: RKIPKVGHTFFQKPESCPPVPGGSMKLDIGIINENQRVSMSRNIESRSTSPWNYTVTWDPNRYPSEVVQAQCRNLGCINAQGKEDISMNSVPIQQETLVVRRKHQGCSVSFQLEKVLVTVGCTCVTPVIHHVQ
B5: IL-17C: recombinant human IL-17C, interleukin 17 isoform that binds IL-17RE (protein)
chain: HHDPSLRGHPHSHGTPHCYSAEELPLGQAPPHLLARGAKWGQALPVALVSSLEAASHRGRHERPSATTQCPVLRPEEVLEADTHQRSISPWRYRVDTDEDRYPQKLAFAECLCRGCIDARTGRETAALNSVRLLQSLLVLRRRPCSRDGSGLPTPGAFAFHTEFIHVPVGCTCVLPRSV

Tests used:
MCF7 breast cancer cells [1] = test: Cell proliferation assay ([3H]-TdR); format: cell-based, human; settings: [3H]-TdR incorporation at 72 h, increasing doses of recombinant cytokine (0 to 100 ng/ml)
Method: (§1) FIGS. 7A-7D: IL-17B increases the proliferation of breast cancer cells. T47D (A), MCF7 (B), MDA-MB436 (C) and MDA-MB468 (D) cells were cultured in adequate complete medium supplemented with increasing doses of recombinant human IL-17B as indicated. Cell proliferation was assessed at 72 h using tritiated thymidine ([3H]-TdR) incorporation protocol.
(§2) FIGS. 10A-10F: IL-17C and IL-17D increase the proliferation of breast and ovarian cancer cells. OAW42 (ovarian, A), MCF7 (breast, B) and T47D (breast, C) cells were cultured in adequate complete medium supplemented with increasing doses of recombinant human IL-17C as indicated. Cell proliferation was assessed at 72 h using tritiated thymidine ([3H]-TdR) incorporation protocol. OAW42 (D), MCF7 (E) and T47D (F) cells were cultured in adequate complete medium supplemented with increasing doses of recombinant human IL-17D as indicated. Cell proliferation was assessed at 72 h using tritiated thymidine ([3H]-TdR) incorporation protocol.
(§3) HCT116, HT29, and SKOV3 cell lines were cultured in McCoy5a medium (Life technologies) supplemented with 10% FCS, 2% glutamine and 1% antibiotics (Life technologies). MCF7, T47D, MDA-MB231 and BT20 cell lines were cultured in RPMI 1640 medium supplemented as described above. SKMEL5, LOVO, OAW42, MDA-MB435S, MDA-MB436, MDA-MB468 cell lines and normal human dermal fibroblasts (NHDF) were grown in DMEM/F12 medium (Life Technologies) supplemented as described above. MCF10A cell line was maintained in DMEM/F12 medium (Life Technologies) supplemented as described above and with 10 μg/ml insulin, 0.5 μg/ml hydrocortisone, 20 ng/ml EGF and 100 ng/ml cholera toxin. MDA-MB157 cell line was cultured in DMEM medium (Life technologies) supplemented with 10% FCS, 2% glutamine and 1% antibiotics. All cells were kept at 37° C. in 5% CO2 atmosphere incubator.
(§4) 400 cells are seeded per well in 96 well plate (Corning) and kept overnight in adequate complete medium. Medium is then removed and replaced with adequate complete medium supplemented with 0 to 100 ng/ml of cytokines as indicated. Each condition is performed in triplicate. After 72 h of culture, cells were pulsed for 16 h with tritiated thymidine ([3H]-TdR) (0.5 μCi) and harvested. [3H]-TdR uptake was measured using PerkinElmer microβ2 2450 microplate counter.

[2] = tested on: OAW42 ovarian cancer cells; test: Cell proliferation assay ([3H]-TdR); format: cell-based, human; settings: [3H]-TdR incorporation at 72 h, increasing doses of recombinant cytokine (0 to 100 ng/ml)
Method: as §2
HCT116, HT29, and SKOV3 cell lines were cultured in McCoy5a medium (Life technologies) supplemented with 10% FCS, 2% glutamine and 1% antibiotics (Life technologies). MCF7, T47D, MDA-MB231 and BT20 cell lines were cultured in RPMI 1640 medium supplemented as described above. SKMEL5, LOVO, OAW42, MDA-MB435S, MDA-MB436, MDA-MB468 cell lines and normal human dermal fibroblasts (NHDF) were grown in DMEM/F12 medium (Life Technologies) supplemented as described above. […]
(§5) 400 cells are seeded per well in 96 well plate (Corning) and kept overnight in adequate complete medium. […] [3H]-TdR uptake was measured using PerkinElmer microβ2 2450 microplate counter.

[3] = tested on: MDA-MB231 breast cancer cells; test: Matrigel invasion assay; format: cell-based, human; settings: cultured 2 days with 100 ng/ml, Matrigel Invasion Chambers, 22 hours
Method: FIGS. 11A-11B: IL-17C and IL-17D increase invasion of MDA-MB231 breast cancer cells. MDA-MB231 were cultured for 2 days in complete adequate medium alone (medium) or supplemented with 100 ng/ml of recombinant human IL-17B, IL-17C or IL-17D as indicated. Cell invasiveness was then evaluated in Matrigel Invasion Chambers (A, representative photomicrographs, B, quantification).
(§6) Cells were cultured in adequate complete medium supplemented with 100 ng/ml of recombinant cytokines for 2 days (MDA-MB231) or 14 days (OAW42). Matrigel Invasion Chambers (BD BioCoat™ BD Matrigel™ Invasion Chamber, 24-well Cell culture inserts) were then used to study the invasiveness of cancer cells. 2.10^4 cells are then added to the upper compartment of the chambers in 1% FCS adequate medium alone or supplemented with 100 ng/ml of recombinant cytokines as indicated. Medium supplemented with 10% FCS is added to the lower wells of the chambers. Plates are incubated for 22 hours at 37° C. Transwell filters are then fixed and stained in Giemsa solution following which non-invading cells are removed from the upper surface of the transwell membrane using a cotton swab. Images of cells from three representative fields are captured digitally and the number of cells present on the transwell is counted.

[4] = tested on: normal human dermal fibroblasts (NHDF); test: IL-6 ELISA; format: cell-based; settings: 30 ng/ml recombinant cytokine, 24 h culture, ELISA of supernatant
Method: FIG. 12: IL-17B, IL-17C, IL-17D, IL-17E and IL-17F increase the production of pro-inflammatory IL-6 by normal human dermal fibroblasts (NHDF). NHDF were cultured for 24 h in complete adequate complete medium alone (medium) or in the presence of 30 ng/ml of recombinant human IL-17B, IL-17C, IL-17D, IL-17E or IL-17F as indicated. All isoforms increased the production of pro-inflammatory IL-6 by NHDF.
Normal human dermal fibroblasts (NHDF) were cultures in complete medium alone or supplemented with 30 ng/ml L of recombinant IL-17B, IL17C or IL17D as indicated. After […] of culture, supernatant are collected. IL-6 ELISA is performed with human IL-6 development kit (Peprotech) following manufacturer's instructions.

T47D breast cancer cells = test: Cell proliferation assay ([3H]-TdR); format: cell-based, human; settings: [3H]-TdR incorporation at 72 h, increasing doses of recombinant cytokine (0 to 100 ng/ml)
Method: as §1, §2, §3, §4

[5] = tested on: MDA-MB436 breast cancer cells; test: Cell proliferation assay ([3H]-TdR); format: cell-based, human; settings: [3H]-TdR incorporation at 72 h, increasing doses of recombinant cytokine (0 to 100 ng/ml)
Method: as §1, §3, §5

[6] = tested on: MDA-MB468 breast cancer cells; test: Cell proliferation assay ([3H]-TdR); format: cell-based, human; settings: [3H]-TdR incorporation at 72 h, increasing doses of recombinant cytokine (0 to 100 ng/ml)
Method: as §1, §3, §5

MDA-MB231 cells = test: Cell proliferation assay ([3H]-TdR); format: cell-based, human; settings: MDA-MB231 cells that do not express IL-17RB; data not shown
Method: as §3, §4

MCF7 breast cancer cells [7] = test: Transwell migration assay; format: cell-based, human; settings: 100 ng/ml, 22 hours
Method: (§7) FIGS. 8A-8C: IL-17B increases migration and invasion of breast and ovarian cancer cells. OAW42 (ovarian, A) and MCF7 (breast, B) cells were cultured in complete adequate complete medium alone (Ctl) or supplemented with 100 ng/ml of recombinant human IL-17B (IL-17B) as indicated. Cell migration was evaluated in transwell migration assay. (C) OAW42 cells were cultured for 14 days in adequate complete medium alone (Ctl) or supplemented with 100 ng/ml of recombinant human IL-17B (IL-17B) as indicated. Cell invasiveness was then evaluated in Matrigel Invasion Chambers.
(§8) Migration Assay 20,000 cells were seeded on the upper chamber of trans well chambers in 1% FCS adequate medium alone (medium) or supplemented with recombinant human IL-17B (100 ng/ml) for 22 hours at 37° C. as indicated. The cells on the transwell were stained with 0.5% crystal violet prior imaging and enumeration. The number of cells migrated onto the transwell were counted (magnification ×4). The graph presents data after quantification in % of cell migration compared to non-treated cells. Results are the mean+/−SEM of two independent experiments, each performed in triplicate.

[8] = tested on: OAW42 ovarian cancer cells; test: Transwell migration assay; format: cell-based, human; settings: 100 ng/ml, 22 hours
Method: as §7, §8

[9] = tested on: OAW42 ovarian cancer cells; test: Matrigel invasion assay; format: cell-based, human; settings: cultured 14 days with 100 ng/ml, Matrigel Invasion Chambers, 22 hours
Method: as §7
as §6, with “Transwell filters are then fixed and stained in Giemsa solution following which non-invading cells are removed from the upper surface of the transwell membrane using a cotton swab.” left out

[10] = tested on: breast cancer cell lines that express IL-17RB; test: Cytotoxicity assay, docetaxel-induced cell death; format: cell-based; settings: MCF7, T47D, MDA-MB436, BT20, MDA-MB468; cytokine 1 or 10 ng/ml; docetaxel 5, 10, 20 or 40 μg/ml for 7 h
Method: (§9) FIGS. 9A-9F: IL-17B inhibits docetaxel and doxorubicin-induced cell death. MCF7 (A), T47D (B), MDA-MB436 (C), BT20 (D) and MDA-MB468 (E) breast cells were cultured for 48 h in adequate complete medium alone (medium) or treated with recombinant human IL-17B at 1 or 10 ng/ml as indicated. Cells were then culture in Fetal Calf Serum (FCS) free medium supplemented with corresponding concentration of cytokine for 24 h and then further supplemented with docetaxel at 5, 10, 20 or 40 μg/ml as indicated for 7 h. The percentage of cell death (=cytotoxicity) was determined using the Cytotoxicity Detection Kit (Roche). (F) MCF7 cells were cultured for 48 h in adequate complete medium alone (medium) or treated with recombinant human IL-17B at 1 or 10 ng/ml as indicated. […] The percentage of cell death (=cytotoxicity) was determined using the Cytotoxicity Detection Kit (Roche). […]
(§10) The percentage of cell death (=cytotoxicity) was determined after 7 h of culture in the presence of docetaxel or doxorubicin using the Cytotoxicity Detection Kit (Roche) according to the manufacturer's instructions. […] Optical density was then read at 490 nm. The percentage of cytotoxicity is calculated as followed: %=100×(exp value−control medium value)/(Triton X100 treated cells value−control medium value)

MCF7 breast cancer cells [11] = test: Cytotoxicity assay, doxorubicin-induced cell death; format: cell-based; settings: cytokine 1 or 10 ng/ml, doxorubicin 20 or 30 μM for 7 h
Method: as §9, §10

Molecule	cell proliferation (MCF7 breast cancer cells [1])	cell proliferation [2]	cell invasiveness [3]	production of pro-inflammatory IL-6 [4]	cell proliferation (T47D breast cancer cells)	cell proliferation [5]	cell proliferation [6]	cell proliferation (MDA-MB231 cells)	cell migration (MCF7 breast cancer cells [7])	cell migration [8]	cell invasiveness [9]	docetaxel-induced cell death (cytotoxicity) [10]	doxorubicin-induced cell death (cytotoxicity) (MCF7 breast cancer cells [11])
B1	increased	increased	increased	increase	–	–	–	–	–	–	–	–	–
B2	–	–	–	increase	–	–	–	–	–	–	–	–	–
B3	increased	–	did not increase	increase	increased	increased	increased	did not stimulate	increased	increased	increased	decreased	protected
B4	–	–	–	increase	–	–	–	–	–	–	–	–	–
B5	increased	increased	increased	increase	increased	–	–	–	–	–	–	–	–
